Common to all, as to assay type: biochemical
Data set [1] in a line: HTP-analysis of yeast culture supernatants, no challenge (MUGal hydrolysis). The following applies: activity of the variant/activity of Rd3BB (SEQ ID NO: 13), yeast culture supernatant. The procedure, abridged:
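GLA variants expressed in yeast INVSc1, secreted into SD-Ura broth over 66-84 h at 30° C; clarified supernatants tested without challenge. Supernatant mixed with McIlvaine buffer pH 4.8 and 2 mM MUGal (citrate/KCl, pH 4.6), 37° C for 30-180 min, carbonate-quenched, fluorescence Ex 355/Em 448 nm.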

The nature of data set [2]: HTP-analysis of supernatants pretreated with acid (MUGal hydrolysis). The following applies: challenge at pH 4.0; activity of the variant/activity of Rd3BB (SEQ ID NO: 13); yeast culture supernatant. The procedure, abridged:
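Yeast INVSc1 supernatant, GLA variants; acid challenge: McIlvaine pH 3.3-4.3, 37° C., 1-3 h. Assay: MUGal in McIlvaine pH 4.8 plus citrate pH 4.3, 37° C., 30-180 min, Na2CO3 stop, Ex 355/Em 448 nm.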

Data set [3] can be described thus: HTP-analysis of supernatants pretreated with base (MUGal hydrolysis). Particulars: challenge at pH 8.2; activity of the variant/activity of Rd3BB (SEQ ID NO: 13); yeast culture supernatant. In a few lines: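 GLA variants were secreted by transformed INVSc1 yeast grown 66-84 h at 30° C. Supernatants were exposed to neutral-to-basic buffers (pH 7.0-9.7) at 37° C for 1-18 h, then assayed with MUGal in acidic citrate/McIlvaine buffer, with fluorescence read after quenching.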

Data set [4] is described as follows: HTP-analysis of supernatants pretreated with bovine serum (MUGal hydrolysis). The following applies: activity of the variant/activity of Rd3BB (SEQ ID NO: 13), yeast culture supernatant. The procedure, abridged:
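Yeast INVSc1 culture supernatants containing secreted GLA variants were mixed with bovine serum (20:80) and held 1 h at 37° C. Serum-treated samples then reacted with MUGal (4 mM stock) in citrate/McIlvaine buffer (pH 4.3/4.8) for 180 min at 37° C., were quenched with sodium carbonate, and read by fluorescence (Ex 355, Em 448 nm).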

The text below walks through data of US11278600B2, “Human alpha-galactosidase variants” (Codexis, Inc., priority 2014, dated 2022).

B1: 337 (protein)
chain: LDNGLARTPTMGWLHWERFMCNLDCQEEPDSCISEKLFMEMAERMVSEGWKDAGYEYLCIDDCWMAPQRDSEGRLQADPQRFPHGIRQLANYVHSKGLKLGIYADVGNKTCAGFPGSFGYYDIDAQTFADWGVDLLKFDGCYCDSLENLADGYKHMSLALNRTGRSIVYSCEWPLYMWPFQKPNYTEIRQYCNHWRNFADIDDSWASIKSILDWTSFNQERIVDVAGPGGWNDPDMLVIGNFGLSWDQQVTQMALWAIMAAPLFMSNDLRHISPQAKALLQDKDVIAINQDPLGKQGYQLRKGDNFEVWERPLSGLAWAVAIINRQEIGGPRSYTIAVASLGDGVACNPACFITQLLPVKRKLGFYNWTSRLKSHINPTGTVLLQLENTMQMSLKDLL
modifications: Synthetic Polypeptide sequence of Variant No. 337 of mature Human GLA
Turning to B1, the “Relative Activity of GLA Variants After No Challenge (NC)” value in data set [1] is on record as “+ (+ = 0.5 to 1.5 relative activity over Rd3BB (SEQ ID NO: 13))”. For the same molecule, the “Relative Activity of GLA Variants After Challenge at pH 4.0” value (“Relative Activity … at pH 4.0” for short) in data set [2] is listed as “++ (++ = >1.5 to 2.5 relative activity over Rd3BB (SEQ ID NO: 13))”. The “Relative Activity of GLA Variants After Challenge at pH 8.2” value (from here on “Relative Activity … at pH 8.2”) in data set [3] is given as “++ (++ = >1.5 to 2.5 relative activity over Rd3BB (SEQ ID NO: 13))”. Moreover, the “Relative Activity of GLA Variants After Challenge with Serum” value (from here on “Relative Activity … with Serum”) in data set [4] was “++ (++ = >1.5 to 2.5 relative activity over Rd3BB (SEQ ID NO: 13))”.

B2: 341 (protein)
chain: LDNGLARTPTMGWLHWERFMCNLDCQEEPDSCISEKLFMEMAERMVSEGWKDAGYEYLCIDDCWMAPQRDSEGRLQADPQRFPHGIRQLANYVHSIGLKLGIYADVGNKTCAGFPGSFGYYDIDAQTFADWGVDLLKFDGCYCDSLENLADGYKHMSLALNRTGRSIVYSCEWPLYMWPFQKPNYTEIRQYCNHWRNFADIDDSWASIKSILDWTSRNQERIVDVAGPGGWNDPDMLVIGNFGLSWDQQVTQMALWAIMAAPLFMSNDLRHISPQAKALLQDKDVIAINQDPLGKQGYQLRQGDNFEVWERPLSGLAWAVAIINRQEIGGPRSYTIAVASLGKGVACNPACFITQLLPVKRKLGFYNWSSRLKSHINPTGTVLLQLENTMQMSLKDLL
modifications: Synthetic Polypeptide sequence of Variant No. 341 of mature Human GLA
Take B2: the “Relative Activity of GLA Variants After No Challenge (NC)” value in data set [1] was “− (− = <0.5 relative activity to Rd3BB (SEQ ID NO: 13))”. For the same molecule, the “Relative Activity … at pH 4.0” value in data set [2] is “+ (+ = 0.5 to 1.5 relative activity over Rd3BB (SEQ ID NO: 13))”. In data set [3], the “Relative Activity … at pH 8.2” value was “+ (+ = 0.5 to 1.5 relative activity over Rd3BB (SEQ ID NO: 13))”. In addition, the “Relative Activity … with Serum” value in data set [4] was “+ (+ = 0.5 to 1.5 relative activity over Rd3BB (SEQ ID NO: 13))”.

B3: 338 (protein)
chain: LDNGLARTPTMGWLHWERFMCNLDCQEEPDSCISEKLFMEMAERMVSEGWKDAGYEYLCIDDCWMAPQRDSEGRLQADPQRFPHGIRQLANYVHSIGLKLGIYADVGNKTCAGFPGSFGYYDIDAQTFADWGVDLLKFDGCYCDSLENLADGYKHMSLALNRTGRSIVYSCEWPLYMWPFQKPNYTEIRQYCNHWRNFADIDDSWASIKSILDWTSRNQERIVDVAGPGGWNDPDMLVIGNFGLSWDQQVTQMALWAIMAAPLFMSNDLRHISPQAKALLQDKDVIAINQDPLGKQGYQLRQGDNFEVWERPLSGLAWAVAIINRQEIGGPRSYTIAVASLGKGVACNPGCFITQLLPVKRQLGFYNWTSRLKSHINPTGTVLLQLENTMQMSLKDLL
modifications: Synthetic Polypeptide sequence of Variant No. 338 of mature Human GLA
Regarding B3, in data set [1], the “Relative Activity of GLA Variants After No Challenge (NC)” value was “++ (++ = >1.5 to 2.5 relative activity over Rd3BB (SEQ ID NO: 13))”. For the same molecule, the “Relative Activity … at pH 4.0” value in data set [2] was “+++ (+++ = >2.5 relative activity over Rd3BB (SEQ ID NO: 13))”. The “Relative Activity … at pH 8.2” value in data set [3] was “+++ (+++ = >2.5 relative activity over Rd3BB (SEQ ID NO: 13))”. In addition, in data set [4], the “Relative Activity … with Serum” value is recorded as “+++ (+++ = >2.5 relative activity over Rd3BB (SEQ ID NO: 13))”.

B4: 340 (protein)
chain: LDNGLARTPTMGWLHWERFMCNLDCQEEPDSCISEKLFMEMAERMVSEGWKDAGYEYLCIDDCWMAPQRDSEGRLQADPQRFPHGIRQLANYVHSIGLKLGIYADVGNKTCAGFPGSFGYYDIDAQTFADWGVDLLKFDGCYCDSLENLADGYKHMSLALNRTGRSIVYSCEWPLYMWPFQKPNYTEIRQYCNHWRNFADIDDSWASIKSILDWTSRNQERIVDVAGPGGWNDPDMLVIGNFGLSWDQQVTQMALWAIMAAPLFMSNDLRHISPQAKALLQDKDVIAINQDPLGKQGYQLRQGDNFEVWERPLSGLAWAVAIINRQEIGGPRSYTIAVASLGKGVACNPGCFITQLLPVKRQLGFYNWSSRLKSHINPTGTVLLQLENTMQMSLKDLL
modifications: Synthetic Polypeptide sequence of Variant No. 340 of mature Human GLA
Take B4: the “Relative Activity of GLA Variants After No Challenge (NC)” value in data set [1] is “+ (+ = 0.5 to 1.5 relative activity over Rd3BB (SEQ ID NO: 13))”. The “Relative Activity … at pH 4.0” value in data set [2] is “+ (+ = 0.5 to 1.5 relative activity over Rd3BB (SEQ ID NO: 13))”. In addition, the “Relative Activity … at pH 8.2” value in data set [3] is given as “+ (+ = 0.5 to 1.5 relative activity over Rd3BB (SEQ ID NO: 13))”. Besides, the “Relative Activity … with Serum” value in data set [4] is recorded as “+ (+ = 0.5 to 1.5 relative activity over Rd3BB (SEQ ID NO: 13))”.

B5: 343 (protein)
chain: LDNGLARTPTMGWLHWERFMCNLDCQEEPDSCISEKLFMEMAERMVSEGWKDAGYEYLCIDDCWMAPQRDSEGRLQADPQRFPHGIRQLANYVHSIGLKLGIYADVGNKTCAGFPGSFGYYDIDAQTFADWGVDLLKFDGCYCDSLENLADGYKHMSLALNRTGRSIVYSCEWPLYMWPFQKPNYTEIRQYCNHWRNFADIDDSWASIKSILDWTSRNQERIVDVAGPGGWNDPDMLVIGNFGLSWDQQVTQMALWAIMAAPLFMSNDLRHISPQAKALLQDKDVIAINQDPLGKQGYQLRKGDNFEVWERPLSGLAWAVAIINRQEIGGPRSYTIAVASLGKGVACNPACFITQLLPVKRKLGFYNWSSRLKSHINPTGTVLLQLENTMQMSLKDLL
modifications: Synthetic Polypeptide sequence of Variant No. 343 of mature Human GLA
Consider B5, for which the “Relative Activity of GLA Variants After No Challenge (NC)” value in data set [1] is “+ (+ = 0.5 to 1.5 relative activity over Rd3BB (SEQ ID NO: 13))”. The “Relative Activity … at pH 4.0” value in data set [2] is listed as “+ (+ = 0.5 to 1.5 relative activity over Rd3BB (SEQ ID NO: 13))”. For the same molecule, the “Relative Activity … at pH 8.2” value in data set [3] was “+ (+ = 0.5 to 1.5 relative activity over Rd3BB (SEQ ID NO: 13))”. The “Relative Activity … with Serum” value in data set [4] is reported as “+ (+ = 0.5 to 1.5 relative activity over Rd3BB (SEQ ID NO: 13))”.

B6: 342 (protein)
chain: LDNGLARTPTMGWLHWERFMCNLDCQEEPDSCISEKLFMEMAERMVSEGWKDAGYEYLCIDDCWMAPQRDSEGRLQADPQRFPHGIRQLANYVHSIGLKLGIYADVGNKTCAGFPGSFGYYDIDAQTFADWGVDLLKFDGCYCDSLENLADGYKHMSLALNRTGRSIVYSCEWPLYMWPFQKPNYTEIRQYCNHWRNFADIDDSWASIKSILDWTSRNQERIVDVAGPGGWNDPDMLVIGNFGLSWDQQVTQMALWAIMAAPLFMSNDLRHISPQAKALLQDKDVIAINQDPLGKQGYQLRKGDNFEVWERPLSGDAWAVAIINRQEIGGPRSYTIPVASLGKGVACNPACFITQLLPVKRKLGFYNWTSRLKSHINPTGTVLLQLENTMQMSLKDLL
modifications: Synthetic Polypeptide sequence of Variant No. 342 of mature Human GLA
For B6, the “Relative Activity of GLA Variants After No Challenge (NC)” value in data set [1] is reported as “++ (++ = >1.5 to 2.5 relative activity over Rd3BB (SEQ ID NO: 13))”. In addition, the “Relative Activity … at pH 4.0” value in data set [2] is recorded as “+++ (+++ = >2.5 relative activity over Rd3BB (SEQ ID NO: 13))”. Moreover, in data set [3], the “Relative Activity … at pH 8.2” value was “+++ (+++ = >2.5 relative activity over Rd3BB (SEQ ID NO: 13))”. For the same molecule, in data set [4], the “Relative Activity … with Serum” value is recorded as “+++ (+++ = >2.5 relative activity over Rd3BB (SEQ ID NO: 13))”.

B7: 339 (protein)
chain: LDNGLARTPTMGWLHWERFMCNLDCQEEPDSCISEKLFMEMAERMVSEGWKDAGYEYLCIDDCWMAPQRDSEGRLQADPQRFPHGIRQLANYVHSIGLKLGIYADVGNKTCAGFPGSFGYYDIDAQTFADWGVDLLKFDGCYCDSLENLADGYKHMSLALNRTGRSIVYSCEWPLYMWPFQKPNYTEIRQYCNHWRNFADIDDSWASIKSILDWTSRNQERIVDVAGPGGWNDPDMLVIGNFGLSWDQQVTQMALWAIMAAPLFMSNDLRHISPQAKALLQDKDVIAINQDPLGKQGYQLRQGDNFEVWERPLSGLAWAVAIINRQEIGGPRSYTIAVASLGKGVACNPGCFITQLLPVKRQLGFYNWTSRLKSHINPTGTVLLQLENTMQMSLKDLL
modifications: Synthetic Polypeptide sequence of Variant No. 339 of mature Human GLA
With B7, the “Relative Activity of GLA Variants After No Challenge (NC)” value in data set [1] was “+ (+ = 0.5 to 1.5 relative activity over Rd3BB (SEQ ID NO: 13))”. For the same molecule, the “Relative Activity … at pH 4.0” value in data set [2] is “+ (+ = 0.5 to 1.5 relative activity over Rd3BB (SEQ ID NO: 13))”. For the same molecule, the “Relative Activity … at pH 8.2” value in data set [3] is “++ (++ = >1.5 to 2.5 relative activity over Rd3BB (SEQ ID NO: 13))”. In addition, the “Relative Activity … with Serum” value in data set [4] is recorded as “+ (+ = 0.5 to 1.5 relative activity over Rd3BB (SEQ ID NO: 13))”.
